The values below come from paper PMC4477667.

The target of the experiment is Deinococcus radiodurans RNase J, wild type, full-length (residues 1-559) (Deinococcus radiodurans). Description: SEC. For orientation: In gel filtration, larger molecules generally elute earlier.

“Deinococcus radiodurans RNase J, wild type, full-length (residues 1-559) (enzyme)”: the stoichiometry N came out at 2.

As a reminder, the stoichiometry N is a count of units in the complex or per binding partner.
